Data on eight substances can be found in patent US5234903A, “Chemically modified hemoglobin as an effective, stable non-immunogenic red blood cell substitute” (Enzon, Inc., priority 1990, dated 1993).

“And” between values parts separate entries of the source, which are not always exact repeats. Equal values may be shown once. Read-outs that look alike come from different tables or passages of the source.

A short description of data set [1]: Methemoglobin content of PEG-Hb preparations. To be noted: in preparation. The format is physicochemical. From the text:
(§1) The polyalkylene oxide modified hemoglobin may then be chemically characterized using methods known in the art. For example, the oxygen dissociation curve may be determined using standard techniques (for example, Imai et al., 1970, Biochim. Biophys. Acta 200: 189-196) allowing calculation of the P50 value. Additional parameters which would be desirable to measure include the methemoglobin content, the viscosity, the osmolality, the pH, and the Hill constant; the effects of changes in pH on the oxygen saturation curve may be determined as described in Bartels (1971, Blood oxygen dissociation curves: Mammals. in "Respiration and Circulation", Altman and Dittmer, Eds., Federation of American Societies for Experimental Biology, Bethesda).

Data set [2] can be described thus: Half-life and intravascular Met-Hb in rats after 70 percent exchange transfusion. The format is in vivo. From the text: Blood circulating time of polyalkylene oxide-modified Hb may, for example, and not by way of limitation, be evaluated by monitoring the concentration of hemoglobin in the plasma fraction (at 540 nm) of blood samples sequentially collected following exchange transfusion with modified Hb. Hemoglobin disappearance may be plotted as a function of time.

A short description of data set [3]: Oxygen binding: P50 (partial pressure of oxygen at 50% saturation) and Hill coefficient. To be noted: Examples I-V and control. The method, then: Hemoglobin constitutes about 90% of the total protein in red blood cells. 100 ml of whole blood is capable of absorbing approximately 21 ml of gaseous oxygen due to the binding ability of hemoglobin. Equally important to the binding of oxygen, hemoglobin is also efficient in releasing the bound oxygen to tissues. The ability of hemoglobin to bind and release oxygen is often quantitatively expressed as the P50, the partial pressure of oxygen which results in fifty percent saturation of hemoglobin.
The resulting modified hemoglobin may then be tested to determine its P50 value so as to confirm that a clinically useful P50 has been achieved. Methods of P50 measurement include standard methods of analysis, such as, for example, methods utilizing the Hemox-Analyzer (TCS Medical Products Co., Huntingdon Valley, Pa.).
Following reduction, the hemoglobin may be reacted with an activated polyalkylene oxide under conditions which maintain the structural integrity of the oxygen binding site. In preferred embodiments of the invention, such conditions consist of a high anion concentration; in a specific embodiment this anion is chloride ion. In preferred embodiments, the chloride ion concentration is at least about 1.0M. […] According to the invention, the activated polyalkylene oxide may have one or more than one functional groups. The degree of modification for each preparation referred to in Table I is approximately 20 percent. This percent modification corresponds to about […] PEG molecules per each molecule of hemoglobin. The percent modification may be calculated according to the number of lysines modified by PEG and is based on a total of 48 surface lysines in bovine hemoglobin. The number may be determined by trinitrobenzene sulfonic acid (TNBS) assay (Habeef et al., 1966, Analyt. Biochem. 14:328-336).
as §1
Purification was carried out using a hollow-fiber ultrafiltration device with M.W. cutoff of 50 kD that is commercially available from American Fluid, Richboro, Pa. The advantage of this device relative to conventional tangential flat ultrafiltration membranes is its easy handling of viscous protein solutions such as the 6% PEG-Hb solution. Following purification, the P50 of the PEG-Hb was determined by a Hemox-Analyzer (TCS Medical Products Co., Huntington Valley, Pa.).

A short description of data set [4]: Viscosity and colloid osmotic pressure of PEG-Hb solutions. The format is physicochemical.
Description: as §1

A further data set relates to rats. Description: Blood pressure, heart rate and breathing in rats after 70 percent exchange transfusion. It counts as in vivo. To be noted: 70% exchange transfusion. From the text: Acute toxicity studies may be performed in any suitable experimental animal. Preferably, a range of exposures may be tested; for example, by evaluating animals that have received a 50 or 70 percent exchange transfusion as compared to animals that have received a 100 percent exchange transfusion. Vital signs and visual observations should be recorded, and the animals may be sacrificed after a period of time estimated to correspond to one half-life of the hemoglobin formulation being tested. Histological evaluation using standard techniques may be used to determine the presence or absence of toxic effects on tissues including lung, kidney, liver, or brain.
The results of in vivo studies, in which rats were given a 70 percent exchange transfusion of hemoglobin prepared according to Examples I-V or control (native bovine hemoglobin) are shown in Table V (bracketed numbers are values obtained in rats that were not transfused). Note that the breathing rate decreased slightly, and the blood pressure increased by at most about 30-35 percent relative to control, showing a good physiologic response to the exchange transfusion.

A short description of data set [5]: Free iron by ferrozine assay. It counts as physicochemical. To be noted: in preparation. From the text: The P50 of the above PEG-bHb was 29mm Hg (Table IV). […] Half-life of this example injected into rats after a 70 percent exchange transfusion was approximately nine hours (Table IV).
For data set [6] the following is noted: in words; cited from earlier work.
For data set [7] the following is noted: in vivo; cited from earlier work.

As to “CONTROL: control (native bovine hemoglobin) [reference compound]”, the Endotoxin entry in the data set “Endotoxin (LAL test)” is recorded as “< .1 EU”. The MetHb in data set [1] was less than 5%. Besides, in data set [2] (rats, 70% exchange transfusion), the Half-life amounted to 1.5 h and the “Met-Hb at Half-life” value is given as 16.5%. In addition, in [3], the “Hill coeff.” value stood at 2.4. In addition, in [4], the “Osmotic Press.” value is 22 mmHg and the Viscosity was 3.0 cp. In the data set with rats, the Breathing was determined as 100 min⁻¹, the “Heart Rate” value turned out to be 304 min⁻¹ and the “Mean Arterial Press.” value stood at 90 mmHg. In addition, in [5], the “Free Iron” value stood at 24 µg/dL.
For the substance “Example I: bovine hemoglobin reduced with cysteine, modified with SC-PEG (MW 5000) at a molar ratio of 20:1”, in “Endotoxin (LAL test)”, the Endotoxin entry was “< .1 EU” and the endotoxins result is “free of endotoxins”. Moreover, the MetHb in data set [1] turned out to be 6%. In addition, in data set [2] (rat, in vivo), the “Formation of Met-bHb in rat intravasculature” value is recorded as “substantially lower than that of unmodified hemoglobin” and the “Met-Hb at Half-life” value is listed as 29.3%. This substance yielded a Half-life in data set [2] (rat, in vivo, iv) of 8.9 h. Besides, in data set [3], the “Hill coeff.” value amounted to 2.58. Besides, in [4], the “Osmotic Press.” value amounted to 24 mmHg, the Viscosity stood at 3.6 cp and the colloid osmolality is reported as 24 mm Hg. In the data set with rats, the Breathing amounted to 117 min⁻¹, the “Heart Rate” value worked out at 392 min⁻¹ and the “Mean Arterial Press.” value was determined as 102 mmHg.
In the case of “Example II: bovine hemoglobin deoxygenated through gas permeable membrane, conjugated to SC-PEG (5000)”, the Endotoxin entry in “Endotoxin (LAL test)” is recorded as “< .1 EU”. Further, in [1], the MetHb is given as less than 5%. In [2] (rats, 70% exchange transfusion), the Half-life amounted to 9.6 h and the “Met-Hb at Half-life” value worked out at 5.8%. Further, in data set [3], the “Hill coeff.” value was found to be 2.2 and the p50 is listed as 24 mmHg. In addition, in [4], the “Osmotic Press.” value was 22 mmHg and the Viscosity stood at 4.5 cp. For the same substance, in the data set with rats, the Breathing was found to be 104 min⁻¹, the “Heart Rate” value amounted to 408 min⁻¹ and the “Mean Arterial Press.” value is given as 119 mmHg. Further, in [5], the “Free Iron” value is 27 µg/dL.
For “Example III: bovine hemoglobin conjugated with SC-PEG (MW 3000) at a molar ratio of 30:1”, the Endotoxin entry in “Endotoxin (LAL test)” is on record as “< .1 EU”. In addition, in [1], the MetHb is given as less than 5%. In data set [2] (rats, 70% exchange transfusion), the Half-life turned out to be 12.4 h and the “Met-Hb at Half-life” value came out at 13.8%. In addition, in data set [3], the “Hill coeff.” value amounted to 2.05 and the p50 was 25 mmHg. In [4], the “Osmotic Press.” value came to 22 mmHg and the Viscosity was 3.8 cp. In the data set with rats, the Breathing was 79 min⁻¹, the “Heart Rate” value amounted to 408 min⁻¹ and the “Mean Arterial Press.” value was found to be 132 mmHg. The “Free Iron” value in [5] stood at 20 µg/dL.
Regarding “Example IV: bovine hemoglobin modified with SC-PEG (MW 2000) at a molar ratio of 40:1”, the Endotoxin entry in the data set “Endotoxin (LAL test)” is reported as “< .1 EU”. For the same substance, the MetHb in data set [1] is on record as less than 5%. In [2] (rats, 70% exchange transfusion), the Half-life came out at 13.0 h and the “Met-Hb at Half-life” value is reported as 18.0%. In data set [3], the “Hill coeff.” value is recorded as 1.8 and the p50 is 20 mmHg. For the same substance, in data set [4], the “Osmotic Press.” value is 22 mmHg and the Viscosity was determined as 3.2 cp. Further, in the data set on rats, the Breathing is 83 min⁻¹, the “Heart Rate” value worked out at 432 min⁻¹ and the “Mean Arterial Press.” value is listed as 129 mmHg. For the same substance, the “Free Iron” value in data set [5] is 20 µg/dL.
For the substance “Example V: polymerized bovine hemoglobin modified first by BSC-PEG (MW 4600) 2:1, then SC-PEG (MW 5000) 10:1”, in the data set “Endotoxin (LAL test)”, the Endotoxin result is on record as “< .1 EU”. Besides, the endotoxins entry in “Endotoxin (LAL test)” (LAL test, in words) was “free of endotoxins”. The MetHb in data set [1] was found to be 2%. Further, in data set [2] (rats, 70% exchange transfusion), the Half-life is 19 h and 18.8 h; the “Met-Hb at Half-life” value was 12.0%. In addition, the “intravascular Met-bHb formation” value in data set [2] (rats, 70 percent exchange transfusion) came out at 12%. Also, the “Hill coeff.” value in data set [3] was 2.2. Further, in data set [4], the “Osmotic Press.” value came out at 20 mmHg, the Viscosity was determined as 4.0 cp and the colloid osmolality is 22 mm Hg. In the data set on rats, the Breathing came to 90 min⁻¹, the “Heart Rate” value is 423 min⁻¹ and the “Mean Arterial Press.” value is recorded as 97 mmHg.
In the case of “Stroma-free hemoglobin: stroma-free hemoglobin, taken out of the red blood cell microenvironment”, the “P50 / oxygen binding of stroma-free hemoglobin” value in data set [6] is reported as “bind oxygen too tightly (a low P50)”. Further, the transfusion half-life entry in data set [7] is “about 100 minutes”.
Consider “U.S. Pat. No. 4,529,719: stroma-free hemoglobin cross-linked with a bis-diaspirin ester, reacted with pyridoxal phosphate”, for which, in data set [7], the Half-life result is given as “approximately 20 hours”.
